# Data reported in patent US20220025071A1.
# Values joined by “and” are separate entries in the source; they are usually repeats but may differ in a detail not shown here. Identical values can stand only once.
# Assays:
# [1] = molecular target: SARS-CoV-2 spike protein, South African Δ3 B.1.351 variant (pseudovirus RVP-724) (SARS-CoV-2) (UniProt P0DTC2); test: cell-based or functional assay
# [2] = molecular target: SARS-CoV-2 spike protein, N439K variant (pseudovirus RVP-703) (SARS-CoV-2) (UniProt P0DTC2); test: cell-based or functional assay
substance,measurement,setting,value
"REGN10987 (Imdevimab, biosimilar version) (antibody)","EC50 (pM) Neutralization, South Africa B.1.351",[1],2.48 pM and 2.37 pM
same,"EC50 (pM) Neutralization, N439K",[2],2260 pM and 2220 pM
same,fold less potent than REGN10933 in pseudovirus neutralization,[2],1000 fold
